Source: patent US20120003180A1

Assays:
[1] = molecular target: α5β1 integrin protein, covalently immobilised on the optical biosensor cuvette; assay: optical biosensor (IAsys), α5β1 immobilised
[2] = molecular target: α5β1 integrin protein, covalently immobilised on the optical biosensor cuvette; assay: optical biosensor (IAsys), α5β1 immobilised, D3904A DV free in solution
[3] = molecular target: α5β1 integrin protein, covalently immobilised on the optical biosensor cuvette; assay: optical biosensor (IAsys), α5β1 immobilised, D3904A DV free in solution; Kd from Koff/Kon
[4] = molecular target: α5β1 integrin protein, covalently immobilised on the optical biosensor cuvette; assay: optical biosensor (IAsys), α5β1 immobilised, LG3 free in solution
[5] = molecular target: α5β1 integrin protein, covalently immobilised on the optical biosensor cuvette; assay: optical biosensor (IAsys), α5β1 immobilised, LG3 free in solution; Kd from Koff/Kon

affinity relative to non-mutated DV (fold of the affinity of non-mutated DV) [1]	koff [2] [s⁻¹]	Kd [3] [µM]	koff [4] [s⁻¹]	Kd [5] [µM]	Substance
< 0.5	0.22	0.37			D3904A DV (perlecan Domain V with DGR mutated to AGR), C-terminal 6×His tag (from UniProt P98160 3687-4391) (ligand)
			1.7	1000	LG3, the C-terminal fragment of perlecan Domain V, with C-terminal 6×His tag (from UniProt P98160 4197-4391) (ligand)
